Assay results from US20250084127.
Positions count from the first letter of the chain named. Numbers in names are those of the source.

Assays:
[1] = molecular target: T1, crude peptide 1 (EG-surugamide B precursor) (not fully specified)
T1 chain: IAIVKIFL

[2] = molecular target: peptide having a polyethylene glycol (PEG) chain therein (EG at the C terminal)
[3] = molecular target: seco-desprenylagaramide C-EG
[4] = molecular target: tyrocidine A precursor having EG as a leaving group

B1: recombinant SurE (protein)
chain: MGSSHHHHHHSSGLVPRGSHMGAEGAERDAVGALFEELVREHRVTGAQLSVYRDGALSEYATGLASVRTGEPVTPRTGFPFGSVTKFLTAELVMQFVCDGDLDLDDPLAGLLPDLGRAAGPPLGTATVRQLLSHTAGVVDSIEYDEMRGPSYRRFAAACARQPALFPPGLAFSYSNTGYCLLGAVIEAASGMDWWTAMDSCLLRPLGIEPAFLHDPRPGQGGAARPVAEGHALRAGGERAEHVDHMASLSLAAAGGLVGSATDLVTAARPHLADRKTFAQHDLLPEDAVLAMRTCVPDAEPFGLADGWGLGLMRHGTGDGAWYGHDGAVGGASCNLRIHPDRSLALALTANSTAGPKLWEALVARLPEAGLDVGHYALPVPDSAPLAPDAGHLGTYANGDLELMVTHDAAGDLFLTRESYSDYRLSLHEDDLFVARSGEPGALPITGRFVREHPAGPVALLQYGGRAMHRL
- peptide cyclization (LC-MS of the reaction mixture) [1]: a substrate (crude peptide 1, EG-SB precursor, m/z 960.5 [+H]) disappeared by the action of SurE to generate a cyclic peptide (surugamide B (SB), m/z 898.5 [+H])
- peptide cyclization (reverse-phase HPLC / LC-MS) [2]: SurE efficiently circularized also a peptide having a PEG chain therein

B2: SurE (G235L) (protein)
chain: B1 chain with G255L
- peptide cyclization (LC-MS of the reaction mixture) [3]: the substrate disappeared by an enzymatic reaction to generate a cyclized product (desprenylagaramide C)

B3: recombinant WolJ (protein)
chain: MNHKVHHHHHHMSAEAKGRGTTISLPLDRLAKEHSVVGGQLAVHHQGTTHTWAFGEEEHDSGRPVSVGTAFALGSTTKALTATSVLQLVSDGDLDLDSPVKTWIEERGAAADHPALNATLRQLLSHTAGLPSDHFDEEAPSLRRWLAGFLTSGDERARASWPTPGSFSYSNIGYAVAGRAVEAATGLPWWQAVRDYLLTPLGTGIGLLPGAPQDGRPLTAAPGHTAHTTPDGRTVVHVVQSTTDAGSAPSGGLAGSAADLVRFARLHLEEPGDLDRSAVADPSVLREMAQPVTGAEPFGLADGWGLGLGHFGPAGRHWLGHDGTLDGSTCHLRIEPRQGTVVALTTNTSSGLALWDSVVEELRECGLDIGLHAPQPPLAAPAATFAECTGTYRNGDLAVTVGIEDQHIVLGLPNGQRDSVAPHTGLFFSGRPGNASLFLGRFVKDVATGEIRALQYSGRTLTREALTARN
- peptide cyclization (LC-MS of the reaction mixture) (seco-wollamide B1-EG): the substrate disappeared by an enzymatic reaction to generate a cyclized product (wollamide B1)

B4: recombinant TycC-TE (protein)
chain: MGSSHHHHHHSSGLVPRGSHMGGSHKRFESRYGTAILLNQETARNVFCFTPIGAQSVYYQKLAAEIQGVSLYSFDFIQDDNRMEQYIAAITAIDPSGPYTLMGYSSGGNLAFEVAKELEERGYGVTDIILFDSYWKDKAIERTVAETENDIAQLFAEIGENTEMFNMTQEDFQLYAANEFVKQSFVRKTVSYVMFHNNLVNTGMTTAAIHLIQSELEADEEAPVAAKWNESAWANATQRLLTYSGHGIHSRMLAGDYASQNASILQNILQELFILKGSRSHHHHHH
- peptide cyclization (LC-MS of the reaction product) [4]: In an active TycC-TE containing system, it was confirmed that a cyclic peptide, i.e., tyrocidine A, and a small amount of substrate hydrolysate were generated
